Test results from article PMC10945824 (Proceedings of the National Academy of Sciences of the …, 2024).
Read-outs that look alike come from different tables or passages of the source.

Key:
cryo-EM structure = molecular target: the molecule itself; assay: cryo-EM structure
negative-stain TEM [1] = molecular target: the molecule itself; assay: negative-stain TEM
negative-stain TEM [2] = molecular target: the molecule itself; assay: negative-stain TEM; remark: listed apart in the source

B1: human paraneoplastic antigen Ma2 (PNMA2), recombinant, wild type (natural protein, UniProt Q9UL42 1-364, looked up)
chain: MALALLEDWCRIMSVDEQKSLMVTGIPADFEEAEIQEVLQETLKSLGRYRLLGKIFRKQENANAVLLELLEDTDVSAIPSEVQGKGGVWKVIFKTPNQDTEFLERLNLFLEKEGQTVSGMFRALGQEGVSPATVPCISPELLAHLLGQAMAHAPQPLLPMRYRKLRVFSGSAVPAPEEESFEVWLEQATEIVKEWPVTEAEKKRWLAESLRGPALDLMHIVQADNPSISVEECLEAFKQVFGSLESRRTAQVRYLKTYQEEGEKVSAYVLRLETLLRRAVEKRAIPRRIADQVRLEQVMAGATLNQMLWCRLRELKDQGPPPSFLELMKVIREEEEEEASFENESIEEPEERDGYGRWNHEGDD
stoichiometry N (cryo-EM structure): 60
binding result (negative-stain TEM [1]): binds

B2: HA-tagged human PNMA2 secreted by HEK293FT cells (natural protein, UniProt Q9UL42 1-364, looked up)
chain: MALALLEDWCRIMSVDEQKSLMVTGIPADFEEAEIQEVLQETLKSLGRYRLLGKIFRKQENANAVLLELLEDTDVSAIPSEVQGKGGVWKVIFKTPNQDTEFLERLNLFLEKEGQTVSGMFRALGQEGVSPATVPCISPELLAHLLGQAMAHAPQPLLPMRYRKLRVFSGSAVPAPEEESFEVWLEQATEIVKEWPVTEAEKKRWLAESLRGPALDLMHIVQADNPSISVEECLEAFKQVFGSLESRRTAQVRYLKTYQEEGEKVSAYVLRLETLLRRAVEKRAIPRRIADQVRLEQVMAGATLNQMLWCRLRELKDQGPPPSFLELMKVIREEEEEEASFENESIEEPEERDGYGRWNHEGDD
binding result (negative-stain TEM [2]): binds
